Experimental data taken from patent publication US20020164744A1, “Soluble, active recombinant human MAO-B” (priority 1999, published 2002).
Like-named read-outs stand apart in the source and are kept apart here.

Tests used:
recombinant human MAO-B [1] = test: MAO-B activity assay (reaction velocity, specific activity, Km) with 1-methyl-4-(1-methyl-2-pyrryl)-1,2,3,6-tetrahydropyridine as substrate; assay type: biochemical; conditions: substrate 1-methyl-4-(1-methyl-2-pyrryl)-1,2,3,6-tetrahydropyridine; purified C-terminal deletion mutants
Description: (§1) The MAO-B containing solutions, including fractions isolated from chromatography columns, were assayed to measure reaction velocity. The assays were carried out in a final volume of 200 μl in 50 mM sodium phosphate, 10 mM NaCl, pH 7.5, with 0.2 mM substrate (1-methyl-4-(1-methyl-2-pyrryl)-1,2,3,6-tetrahydropyridine) as described in Flaherty, et al., J. Med. Chem., 39:4756-4761 (1996) hereby incorporated by reference. Reaction velocity was followed at an absorbence of 420 nm at 37° C. in a SpectraMax 250 96-well plate reader. Specific activity measurements were made using a Shimadzu UV-2101PC spectrophotometer equipped with a Shimadzu temperature controller (TCC-controller) set to 37° C. Protein concentrations were determined using the Bio-Rad Protein Assay kit (Bio-Rad Laboratories, Hercules, Calif.).
(§2) Analysis of samples containing purified wild-typeMAO-B was carried out using 1-methyl-4-(1-methyl-2-pyrryl)-1,2,3,6-tetrahydropyridine as the substrate. The effect of protein concentration on activity was measured. […] The plot of MAO-B concentration vs. activity was a straight line. Variation of the substrate at a constant enzyme concentration was used to determine the Km for the substrate. […] Again, the reaction progress at each concentration of substrate was followed as straight lines with coefficients of correlation greater than 0.99.
(§3) The activity of samples containing the purified mutant MAO-B described in Example 1 above was also analyzed using 1-methyl-4-(1-methyl-2-pyrryl)-1,2,3,6-tetrahydropyridine as the substrate. Activity was highest for wild-type MAO-B followed by the MAO-B mutant Met1-Leu498 which had approximately 10% of wild-type activity. The two remaining C-terminal deletion mutants, Met1-Val470 and Met1-Val418, had about the same activities, less than 0.1% of wild-type MAO-B activity. This confirms that deletion or truncation of the C-terminus of human MAO-B causes loss of enzymatic activity.

recombinant human MAO-B [2] = target: T1, recombinant human MAO-B (Homo sapiens, UniProt P27338); test: as above; assay type: biochemical
T1 construct: DNA coding for the full length and truncated C-terminal HIS tagged MAO-B proteins, as described above; made in house; host or cells: Saccharomyces cerevisiae INVSc1
T1 sequence (P27338 1-520): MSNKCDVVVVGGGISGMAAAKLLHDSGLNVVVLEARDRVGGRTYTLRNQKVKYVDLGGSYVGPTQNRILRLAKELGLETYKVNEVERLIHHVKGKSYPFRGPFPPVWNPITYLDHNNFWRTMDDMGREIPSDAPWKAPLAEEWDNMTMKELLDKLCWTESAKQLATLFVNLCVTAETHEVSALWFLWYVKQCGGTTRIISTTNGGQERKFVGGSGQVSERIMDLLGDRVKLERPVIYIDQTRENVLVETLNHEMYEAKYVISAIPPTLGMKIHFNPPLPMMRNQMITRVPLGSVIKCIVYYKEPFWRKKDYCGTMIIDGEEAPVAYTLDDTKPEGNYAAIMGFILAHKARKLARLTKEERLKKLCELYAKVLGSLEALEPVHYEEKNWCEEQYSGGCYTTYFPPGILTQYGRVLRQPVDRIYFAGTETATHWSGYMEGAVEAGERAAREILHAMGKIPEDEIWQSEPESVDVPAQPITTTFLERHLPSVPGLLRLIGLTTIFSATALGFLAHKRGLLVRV
Description: as §1, §2, §3

[3] = substrate 1-methyl-4-(1-methyl-2-pyrryl)-1,2,3,6-tetrahydropyridine, 37° C., fraction after purification step
[4] = substrate 1-methyl-4-(1-methyl-2-pyrryl)-1,2,3,6-tetrahydropyridine, fraction after purification step, read-out: Km FOR SUBSTRATE

B1: Met1-Leu498: C-terminal deletion mutant of human MAO-B-HIS6, residues Met1-Leu498 (protein, UniProt P27338 1-498, looked up, fragment)
chain: MSNKCDVVVVGGGISGMAAAKLLHDSGLNVVVLEARDRVGGRTYTLRNQKVKYVDLGGSYVGPTQNRILRLAKELGLETYKVNEVERLIHHVKGKSYPFRGPFPPVWNPITYLDHNNFWRTMDDMGREIPSDAPWKAPLAEEWDNMTMKELLDKLCWTESAKQLATLFVNLCVTAETHEVSALWFLWYVKQCGGTTRIISTTNGGQERKFVGGSGQVSERIMDLLGDRVKLERPVIYIDQTRENVLVETLNHEMYEAKYVISAIPPTLGMKIHFNPPLPMMRNQMITRVPLGSVIKCIVYYKEPFWRKKDYCGTMIIDGEEAPVAYTLDDTKPEGNYAAIMGFILAHKARKLARLTKEERLKKLCELYAKVLGSLEALEPVHYEEKNWCEEQYSGGCYTTYFPPGILTQYGRVLRQPVDRIYFAGTETATHWSGYMEGAVEAGERAAREILHAMGKIPEDEIWQSEPESVDVPAQPITTTFLERHLPSVPGLLRLIGL
modifications: His6 tag
activity relative to wild-type MAO-B activity (recombinant human MAO-B [1]): approximately 10%

B2: Post-Superose 6 chromatography/concentrate: recombinant human MAO-B further resolved on Superose-6 size exclusion column and concentrated (protein, UniProt P27338 2-520, looked up)
Amine oxidase …: SNKCDVVVVGGGISGMAAAKLLHDSGLNVVVLEARDRVGGRTYTLRNQKVKYVDLGGSYVGPTQNRILRLAKELGLETYKVNEVERLIHHVKGKSYPFRGPFPPVWNPITYLDHNNFWRTMDDMGREIPSDAPWKAPLAEEWDNMTMKELLDKLCWTESAKQLATLFVNLCVTAETHEVSALWFLWYVKQCGGTTRIISTTNGGQERKFVGGSGQVSERIMDLLGDRVKLERPVIYIDQTRENVLVETLNHEMYEAKYVISAIPPTLGMKIHFNPPLPMMRNQMITRVPLGSVIKCIVYYKEPFWRKKDYCGTMIIDGEEAPVAYTLDDTKPEGNYAAIMGFILAHKARKLARLTKEERLKKLCELYAKVLGSLEALEPVHYEEKNWCEEQYSGGCYTTYFPPGILTQYGRVLRQPVDRIYFAGTETATHWSGYMEGAVEAGERAAREILHAMGKIPEDEIWQSEPESVDVPAQPITTTFLERHLPSVPGLLRLIGLTTIFSATALGFLAHKRGLLVRV
SPECIFIC ACTIVITY (recombinant human MAO-B [2]; [3]): 80.6 nmol/min/mg | Km (recombinant human MAO-B [2]; [4]): 55.4 µM

B3: IMAC eluted/concentrate: HIS-tagged recombinant human MAO-B from yeast extract, eluted from Ni-NTA IMAC column and concentrated (protein, UniProt P27338 2-520, looked up)
Amine oxidase …: SNKCDVVVVGGGISGMAAAKLLHDSGLNVVVLEARDRVGGRTYTLRNQKVKYVDLGGSYVGPTQNRILRLAKELGLETYKVNEVERLIHHVKGKSYPFRGPFPPVWNPITYLDHNNFWRTMDDMGREIPSDAPWKAPLAEEWDNMTMKELLDKLCWTESAKQLATLFVNLCVTAETHEVSALWFLWYVKQCGGTTRIISTTNGGQERKFVGGSGQVSERIMDLLGDRVKLERPVIYIDQTRENVLVETLNHEMYEAKYVISAIPPTLGMKIHFNPPLPMMRNQMITRVPLGSVIKCIVYYKEPFWRKKDYCGTMIIDGEEAPVAYTLDDTKPEGNYAAIMGFILAHKARKLARLTKEERLKKLCELYAKVLGSLEALEPVHYEEKNWCEEQYSGGCYTTYFPPGILTQYGRVLRQPVDRIYFAGTETATHWSGYMEGAVEAGERAAREILHAMGKIPEDEIWQSEPESVDVPAQPITTTFLERHLPSVPGLLRLIGLTTIFSATALGFLAHKRGLLVRV
modifications: His tag
notes: HIS-tagged recombinant human MAO-B from yeast extract, eluted from Ni-NTA IMAC column and concentrated
SPECIFIC ACTIVITY (recombinant human MAO-B [2]; [3]): 8.7 nmol/min/mg | Km (recombinant human MAO-B [2]; [4]): 71.9 µM

B4: wild-type MAO-B: purified full-length recombinant human MAO-B with HIS6 tag expressed in S. cerevisiae (protein, UniProt P27338 1-520, looked up)
chain: MSNKCDVVVVGGGISGMAAAKLLHDSGLNVVVLEARDRVGGRTYTLRNQKVKYVDLGGSYVGPTQNRILRLAKELGLETYKVNEVERLIHHVKGKSYPFRGPFPPVWNPITYLDHNNFWRTMDDMGREIPSDAPWKAPLAEEWDNMTMKELLDKLCWTESAKQLATLFVNLCVTAETHEVSALWFLWYVKQCGGTTRIISTTNGGQERKFVGGSGQVSERIMDLLGDRVKLERPVIYIDQTRENVLVETLNHEMYEAKYVISAIPPTLGMKIHFNPPLPMMRNQMITRVPLGSVIKCIVYYKEPFWRKKDYCGTMIIDGEEAPVAYTLDDTKPEGNYAAIMGFILAHKARKLARLTKEERLKKLCELYAKVLGSLEALEPVHYEEKNWCEEQYSGGCYTTYFPPGILTQYGRVLRQPVDRIYFAGTETATHWSGYMEGAVEAGERAAREILHAMGKIPEDEIWQSEPESVDVPAQPITTTFLERHLPSVPGLLRLIGLTTIFSATALGFLAHKRGLLVRV
modifications: full-length His6 tag
notes: purified full-length recombinant human MAO-B with HIS6 tag expressed in S. cerevisiae
activity (rank among wild-type and mutants) (recombinant human MAO-B [2]; substrate 1-methyl-4-(1-methyl-2-pyrryl)-1,2,3,6-tetrahydropyridine): highest | Km (recombinant human MAO-B [2]; substrate 1-methyl-4-(1-methyl-2-pyrryl)-1,2,3,6-tetrahydropyridine varied at constant enzyme concentration, 37° C., read-out: Km for the substrate (Lineweaver Burke plot)): 71.9 µM
